The source of these data is patent US20050130130A1 (INSTITUT NATIONAL DE LA SANTE ET DE LA RECHERCHE MEDICALE …, published 2005).

The experiment addresses T1, p50.2 KAR (human, UniProt P43631 22-304).
T1 construct: whole, on cells; also called KAR of D.F. NK cells; KAR p50.2
Briefly: anti-CD158 immunoprecipitation from NK cell lysates, immunotransfer with anti-FcεRIγ.

T1 sequence (P43631 22-304): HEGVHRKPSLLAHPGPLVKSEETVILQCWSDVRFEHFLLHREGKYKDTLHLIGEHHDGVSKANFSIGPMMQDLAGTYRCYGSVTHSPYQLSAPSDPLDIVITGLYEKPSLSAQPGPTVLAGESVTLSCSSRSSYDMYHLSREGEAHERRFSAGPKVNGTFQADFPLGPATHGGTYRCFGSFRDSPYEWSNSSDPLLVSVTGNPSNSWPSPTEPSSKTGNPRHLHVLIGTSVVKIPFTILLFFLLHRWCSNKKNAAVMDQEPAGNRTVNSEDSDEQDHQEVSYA

B1: FcεRIγ (other, human, UniProt P30273 19-86, looked up)
chain: LGEPQLCYILDAILFLYGIVLTLLYCRLKIQVRKAAITSYEKSDGVYTGLSTRNQETYETLKHEKPPQ
notes: whole, on cells; Endogenous protein in NK cell lysates; also called FcεRI gamma
For the molecule B1, the binding result is reported as “no binding”.
